# Source: patent US6759384 (AVENTIS PHARMACEUTICALS, dated 2004)
# Starred links: 1 amine or outer side, 2 acyl side, 3 side chain; linkers in the order of their positions; H or OH if unused. Non-standard residues stand in square brackets, D forms with d. *: point of attachment. (iBu)F(pNH2) = N-alpha-isobutyl-4-amino-phenylalanine, CC(C)CN([C@@H](Cc1ccc(N[*:3])cc1)C(=O)[*:2])[*:1]; (iBu)Phe(4-NH2) = N-isobutyl-4-amino-L-phenylalanine, CC(C)CN([C@@H](Cc1ccc(N[*:3])cc1)C(=O)[*:2])[*:1]; (iBu)Phe(4-CN) = N-isobutyl-4-cyano-L-phenylalanine, CC(C)CN([C@@H](Cc1ccc(C#N)cc1)C(=O)[*:2])[*:1]; Phe(4-amidino) = N=C(N)c1ccc(C[C@H](N)C(=O)O)cc1; 2‑pyridonyl = 2-pyridonyl N-terminal group; Phe(4-NH2) = Nc1ccc(C[C@H](N)C(=O)O)cc1; 2‑naphthylmethyl = c1ccc2cc(C*)ccc2c1; Quinaldoyl = O=C(c1ccc2ccccc2n1)*; Chg = N[C@H](C(=O)O)C1CCCCC1; Tfa = O=C(C(F)(F)F)*; Bz = O=C(c1ccccc1)*
# Tests used:
# [1] = target: T1, human factor Xa (Enzyme Research Laboratories, Inc.) (human, UniProt P00742 41-179; P00742 235-488, limits assumed); assay: chromogenic FXa inhibition
# T1 sequence (P00742 41-179 limits assumed, chain 1 of 2): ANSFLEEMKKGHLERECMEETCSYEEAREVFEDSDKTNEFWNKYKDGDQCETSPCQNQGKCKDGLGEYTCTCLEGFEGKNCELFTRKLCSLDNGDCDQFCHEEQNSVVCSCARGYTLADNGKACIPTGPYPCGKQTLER
# T1 sequence (P00742 235-488 limits assumed, chain 2 of 2): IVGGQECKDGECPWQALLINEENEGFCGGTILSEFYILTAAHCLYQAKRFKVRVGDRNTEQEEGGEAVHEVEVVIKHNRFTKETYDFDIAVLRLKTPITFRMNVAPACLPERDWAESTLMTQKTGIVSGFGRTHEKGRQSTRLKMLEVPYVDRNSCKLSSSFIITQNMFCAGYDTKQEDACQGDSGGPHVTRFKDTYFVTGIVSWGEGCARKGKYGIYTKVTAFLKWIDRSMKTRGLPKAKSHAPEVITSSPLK
# Summary of the method: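 Human FXa (0.5 nM) preincubated 10 min with inhibitor in TBS-P (pH 7.8, 200 mM NaCl, PEG-8000), then S-2765 added (140 μM). Initial hydrolysis rate read at 405 nm, 25° C.; IC50 by linear regression of relative rate vs log concentration.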
# [2] = target: T1, human factor Xa (Enzyme Research …); assay: chromogenic FXa inhibition; remark: listed apart in the source
# Experimental: TBS-P buffer (50 mM Tris-Cl, pH 7.8, 200 mM NaCl, 0.05% (w/v) PEG-8000, 0.02% (w/v) NaN_3) was used for this assay. The IC$50$ was determined by combining in appropriate wells of a Costar half-area microtiter plate 25 μl human factor Xa (Enzyme Research Laboratories, Inc.; South Bend Ind.) in TBS-P; 40 μl 10% (v/v) DMSO in TBS-P (uninhibited control) or various concentrations of a peptide to be tested diluted in 10% (v/v) DMSO in TBS-P; and substrate S-2765 (Nα-benzyloxycarbonyl-D-Arg-Gly-L-Arg-p-nitroanilide; Kabi Pharmacia, Inc.; Franklin Ohio) in TBS-P.
# The assays were performed by pre-incubating the peptide inhibitor plus enzyme for 10 min, then the assay was initiated by adding substrate to obtain a final volume of 100 μl. The initial velocity of chromogenic substrate hydrolysis was measured by the change in absorbance at 405 nm using a Bio-tek Instruments kinetic plate reader (Ceres UV900HDi) at 25° C. during the linear portion of the time course (usually 1–5 min after addition of substrate). The concentration of inhibitor that caused a 50% decrease in the rate of substrate hydrolysis was predicted by linear regression after plotting the relative rates of hydrolysis (compared to the uninhibited control) versus the log of the peptide concentration. The enzyme concentration was 0.5 nM and substrate concentration was 140 μM.
# [3] = target: T1, human factor Xa (Enzyme Research …); assay: chromogenic enzyme inhibition, IC50 corrected for substrate
binder,measurement,setting,value
"XIRLP (N-term Ac; N-(3,3-DiMe-nBu) on Y1; C-term NH2) [Ac-(3,3-DiMe-nBu)Y-I-R-L-P-NH2]",Ki,[1],< 100 µM
"XIRLP (N-term Ac; N-(Chx-CH2) on Y1; C-term NH2, also called Ac-(Chx-CH2)Tyr-Ile-Arg-Leu-Pro-NH2; Ac-(Chx-CH2)-Tyr-Ile-Arg-Leu-Pro-NH2) [Ac-(Chx-CH2)Y-I-R-L-P-NH2]",Ki,[1],< 100 µM
same,Ki,[2],< 100 µM
XIRLP (N-term Ac; N-(Cyclopropyl-CH2) on Y1; Y1=Y(SO3H); C-term NH2) [Ac-(Cyclopropyl-CH2)Y(SO3H)-I-R-L-P-NH2],Ki,[1],< 100 µM
"Tfa-[(iBu)F(pNH2)][Chg]RLP-NH2 (SMILES CC(C)C[C@H](NC(=O)[C@H](CCCNC(=N)N)NC(=O)[C@@H](NC(=O)[C@H](Cc1ccc(N)cc1)N(CC(C)C)C(=O)C(F)(F)F)C1CCCCC1)C(=O)N1CCC[C@H]1C(N)=O, also called CF3C(O)-(iBu)Phe(NH2)-Chg-Arg-Leu-Pro-NH2) [Tfa-(iBu)F(pNH2)-Chg-R-L-P-NH2]",Ki,[1],< 100 µM
same,Ki,[2],< 100 µM
"YIRLP (D-Tyr at 1; C-term NH2, also called (D)-Tyr-Ile-Arg-Leu-Pro-NH2) [y-I-R-L-P-NH2]",Ki,[3],0.2 µM
same,Ki,[1],< 100 µM
XIRLP (N-term Ac; N-(Et-CH═C(CH3)-CH2) on Y1; C-term NH2) [Ac-(Et-CH═C(CH3)-CH2)Y-I-R-L-P-NH2],Ki,[1],< 100 µM
"Ac-[Phe(4-NH2)][Chg]RLP-NH2 (SMILES CC(=O)N[C@@H](Cc1ccc(N)cc1)C(=O)N[C@H](C(=O)N[C@@H](CCCNC(=N)N)C(=O)N[C@@H](CC(C)C)C(=O)N1CCC[C@H]1C(N)=O)C1CCCCC1, also called Ac-Phe(pNH2)-Chg-Arg-Leu-Pro-NH2) [Ac-F(pNH2)-Chg-R-L-P-NH2]",Ki,[1],< 100 µM
same,Ki,[2],< 100 µM
Quinaldoyl-F[Chg]RLP-NH2 (not fully specified (residue 1); printed as (2-quinolinoyl)-Phe(NH2)-Chg-Arg-Leu-Pro-NH2) [(2-quinolinoyl)-Phe(NH2)-Chg-Arg-Leu-Pro-NH2],Ki,[2],< 100 µM
Ac-[(iBu)Phe(4-CN)][Chg]RLP-NH2 [Ac-(iBu)Phe(pCN)-Chg-Arg-Leu-Pro-NH2],Ki,[2],< 100 µM
{2‑pyridonyl}-[Phe(4-NH2)][Chg]RLP-NH2 [(2-pyridonyl)Phe(pNH2)Chg-Arg-Leu-Pro-NH2],Ki,[2],< 100 µM
{2‑methylbenzyl}-[Phe(4-NH2)][Chg]RLP-NH2 [(2-methylbenzyl)-Phe(pNH2)-Chg-Arg-Leu-Pro-NH2],Ki,[2],< 100 µM
{2‑naphthylmethyl}-[Phe(4-NH2)][Chg]RLP-NH2 (SMILES CC(C)C[C@H](NC(=O)[C@H](CCCNC(=N)N)NC(=O)[C@@H](NC(=O)[C@H](Cc1ccc(N)cc1)NCc1ccc2ccccc2c1)C1CCCCC1)C(=O)N1CCC[C@H]1C(N)=O) [(2-naphythl-CH2)Phe(pNH2)-Chg-Arg-Leu-Pro-NH2],Ki,[2],< 100 µM
"XIRLP (N-term Ac; N-(3,3-DiMe-nBu) on Y1; Y1=Y(SO3H); C-term NH2) [Ac-(3,3-DiMe-nBu)Y(SO3H)-I-R-L-P-NH2]",Ki,[1],< 100 µM
{2‑naphthylsulfonyl}-[Phe(4-NH2)][Chg]RLP-NH2 [(2-naphthylsulfonyl)-Phe(pNH2)-Chg-Arg-Leu-Pro-NH2],Ki,[2],< 100 µM
XIRLP (N-term Ac; N-(Cyclopropyl-CH2) on Y1; C-term NH2) [Ac-(Cyclopropyl-CH2)Y-I-R-L-P-NH2],Ki,[1],< 100 µM
Ac-[(iBu)Phe(4-NH2)][Chg]RLP-NH2 (also called Ac-(iBu)-Phe(pNH2)-Chg-Arg-Leu-Pro-NH2) [Ac-(iBu)F(pNH2)-Chg-R-L-P-NH2],Ki,[1],< 100 µM
same,Ki,[2],< 100 µM
"XIRLP (N-term Ac; N-(3,5,5-Me-3-nHexyl) on Y1; C-term NH2) [Ac-(3,5,5-Me-3-nHexyl)Y-I-R-L-P-NH2]",Ki,[1],< 100 µM
"Bz-[Phe(4-NH2)][Chg]RLP-NH2 (SMILES CC(C)C[C@H](NC(=O)[C@H](CCCNC(=N)N)NC(=O)[C@@H](NC(=O)[C@H](Cc1ccc(N)cc1)NC(=O)c1ccccc1)C1CCCCC1)C(=O)N1CCC[C@H]1C(N)=O, also called Bz-F(pNH2)-Chg-R-L-P-NH2) [(Benzoyl)-Phe(pNH2)-Chg-Arg-Leu-Pro-NH2]",Ki,[2],< 100 µM
Ac-[Phe(4-amidino)]IRLP-NH2 (SMILES CC[C@H](C)[C@H](NC(=O)[C@H](Cc1ccc(C(=N)N)cc1)NC(C)=O)C(=O)N[C@@H](CCCNC(=N)N)C(=O)N[C@@H](CC(C)C)C(=O)N1CCC[C@H]1C(N)=O) [Ac-pAph-I-R-L-P-NH2],Ki,[1],< 100 µM
same,Ki,[2],< 100 µM
